From PMC7443878 (Proceedings of the National Academy of Sciences of the …, 2020)

B1: recombinant MBP-RIPK1 RHIM domain (496–583) (domain or fragment)
chain: HMPSLHNIPVPETNYLGNTPTMPFSSLPPTDESIKYTIYNSTGIQIGAYNYMEIGGTSSSLLDSTNTNFKEEPAAKYQAIFDNTTSLT
B2: His-MBP-RIPK3 (388–514) (domain or fragment)
chain: SSDSMAQPPQTPETSTFRNQMPSPTSTGTPSPGPRGNQGAERQGMNWSCRTPEPNPVTGRPLVNIYNCSGVQVGDNNYLTMQQTTALPTWGLAPSGKGRGLQHPPPVGSQEGPKDPEAWSRPQGWYN

Tests used:
His-MBP-RIPK3 (388–514) = target: B2; test: pull-down
MBP-MYC (1–144) = MBP-MYC (1–144) (UniProt P01106-1 1-144); test: pull-down
MBP-MYC (1–144), sequence (P01106 16-159): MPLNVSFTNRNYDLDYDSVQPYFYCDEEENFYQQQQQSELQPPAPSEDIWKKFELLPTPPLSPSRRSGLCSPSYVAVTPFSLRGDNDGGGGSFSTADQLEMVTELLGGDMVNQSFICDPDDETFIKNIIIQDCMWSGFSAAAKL

binding result (His-MBP-RIPK3 (388–514)) | binding result (MBP-MYC (1–144)) | Binder
binds |  | B1
 | binds | B2
